{"source": "the RNAGym collection of RNA variant scans (doi:10.1101/gr.219683.116)", "parents": {"B1": {"name": "mRNA-splicing (parent)", "chain": "AGUUGCUGCUGGGAGCUCCAGCACAGUGAAAUGGACAGAAGGGCAGAGCAA"}}}
{"variants_of": "B1", "assay": "exon inclusion enrichment index; higher = more inclusion; WT1 exon 5 minigene, HEK293"}
{"variant": "G5U G8U C9U A37G G38A", "exon inclusion enrichment index": 0.184}
{"variant": "G11C", "exon inclusion enrichment index": 2.05}
{"variant": "G11A", "exon inclusion enrichment index": 0.618}
{"variant": "G5C C6U G8C C9U U10C G15C C16A", "exon inclusion enrichment index": 1.75}
{"variant": "C6A U7C C9A U10C C44G A45C", "exon inclusion enrichment index": 4.25}
{"variant": "A14G G15U", "exon inclusion enrichment index": 0.0597}
{"variant": "G5C C6A U7C G8A U10A G28U A29U", "exon inclusion enrichment index": 0.00263}
{"variant": "G5C C6A U7C G8A U10A C18U", "exon inclusion enrichment index": 0.054}
{"variant": "G5C C6A U7C G8A U10A A31G U32A", "exon inclusion enrichment index": 0.854}
{"variant": "C6A U7A C9A U10A G21A C22U", "exon inclusion enrichment index": 0.235}
{"variant": "G33A G34C", "exon inclusion enrichment index": 0.0101}
{"variant": "G33A G34A", "exon inclusion enrichment index": 0.0101}
{"variant": "C6A U7A C9A U10A A40G G41C", "exon inclusion enrichment index": 2.13}
{"variant": "G5C C6G U7C U10C C18A C19G", "exon inclusion enrichment index": 1.5}
{"variant": "G5A U7C G8A U10C U27G", "exon inclusion enrichment index": 1.05}
{"variant": "C6A U7A C9A U10A G34U", "exon inclusion enrichment index": 0.123}
{"variant": "C6A U7C U10C", "exon inclusion enrichment index": 3.14}
{"variant": "G5C C6G U7C U10C A25G G26A", "exon inclusion enrichment index": 5.6}
{"variant": "G5C C6U G8C C9U U10C A23C C24G", "exon inclusion enrichment index": 3.11}
{"variant": "G5C C6G U7C U10C G12A G13U", "exon inclusion enrichment index": 0.589}
{"variant": "C6A U7A C9A U10A G34C A35U", "exon inclusion enrichment index": 0.104}
{"variant": "C6A U7C C9A U10C A45C G46C", "exon inclusion enrichment index": 2.21}
{"variant": "G5C C6A U7C G8A U10A G11C G12U", "exon inclusion enrichment index": 0.0425}
{"variant": "G5A C6G U7G C9A C16U U17G", "exon inclusion enrichment index": 0.0132}
{"variant": "C6A U7A C9A U10A G13C", "exon inclusion enrichment index": 1.04}
{"variant": "C6A U7C C9A U10C G33U G34C", "exon inclusion enrichment index": 1.4}
{"variant": "G5A U7C G8A U10C G33C", "exon inclusion enrichment index": 2.65}
{"variant": "C6A U7A C9A U10A C16U U17A", "exon inclusion enrichment index": 0.291}
{"variant": "C6A U7C C9A U10C A47C G48C", "exon inclusion enrichment index": 2.81}
{"variant": "G5C C6U G8C C9U U10C G38A A39G", "exon inclusion enrichment index": 1.85}
{"variant": "G5A C6G U7G C9A U27C G28U", "exon inclusion enrichment index": 0.00816}
{"variant": "G5C C6G U7C U10C G13U A14U", "exon inclusion enrichment index": 1.35}
{"variant": "G5A C6U U7A G8U C9A U10A G11U", "exon inclusion enrichment index": 0.0948}
{"variant": "C6G U7G C9A U10C", "exon inclusion enrichment index": 0.246}
{"variant": "G5A C6U U7A G8U C9A A14G G15U", "exon inclusion enrichment index": 0.00355}
{"variant": "G5A C6G U7G C9A G28A A29G", "exon inclusion enrichment index": 0.000786}
{"variant": "G5U G8U C9U G43A C44U", "exon inclusion enrichment index": 0.177}
{"variant": "U3C G5A U7C G8A U10C", "exon inclusion enrichment index": 1.28}
{"variant": "G5C C6U G8C C9U U10C G15U", "exon inclusion enrichment index": 2.23}
{"variant": "G5A U7C G8A U10C G26C", "exon inclusion enrichment index": 2.46}
{"variant": "U4G C6A U7C C9A U10C", "exon inclusion enrichment index": 2.45}
{"variant": "C6A U7C C9A U10C G26C", "exon inclusion enrichment index": 3.46}
{"variant": "G5A U7C G8A U10C C19U", "exon inclusion enrichment index": 0.131}
{"variant": "U4G G8U C9U", "exon inclusion enrichment index": 0.193}
{"variant": "G5C C6G U7C U10C G33A G34U", "exon inclusion enrichment index": 0.979}
{"variant": "G5A C6G U7G C9A G46A", "exon inclusion enrichment index": 0.00583}
{"variant": "G5C C6A U7A G8U U10A", "exon inclusion enrichment index": 0.0878}
{"variant": "G5C C6G U7C U10C C44G", "exon inclusion enrichment index": 4.42}
{"variant": "G5U G8U C9U C36U", "exon inclusion enrichment index": 0.0293}
{"variant": "G5A C6G U7G C9A A40C G41U", "exon inclusion enrichment index": 0.00114}
{"variant": "G5A C6G U7G C9A A29C A30C", "exon inclusion enrichment index": 0.00169}
{"variant": "G5C C6A U7C G8A U10A G42U", "exon inclusion enrichment index": 0.154}
{"variant": "G5U G8U C9U A40G G41U", "exon inclusion enrichment index": 0.107}
{"variant": "G38C", "exon inclusion enrichment index": 0.09}
{"variant": "G5C C6U G8C C9U U10C A35U", "exon inclusion enrichment index": 0.452}
{"variant": "C6A U7C C9A U10C A39C", "exon inclusion enrichment index": 1.37}
{"variant": "G5C C6A U7C G8A U10A C16U U17C", "exon inclusion enrichment index": 0.0203}
{"variant": "G5C C6A U7C G8A U10A C16U U17A", "exon inclusion enrichment index": 0.048}
{"variant": "C6A U7A C9A U10A G41U G42U", "exon inclusion enrichment index": 0.717}
{"variant": "G5A U7C G8A C9G", "exon inclusion enrichment index": 0.872}
{"variant": "G2A U3G G5C C6G U7C U10C", "exon inclusion enrichment index": 2.14}
{"variant": "G5A C6U U7A G8U C9A G28C A29G", "exon inclusion enrichment index": 0.178}
{"variant": "G5A C6U U7A G8U C9A U17G C18A", "exon inclusion enrichment index": 0.0489}
{"variant": "G5A C6G U7G C9A A29G A30U", "exon inclusion enrichment index": 0.000871}
{"variant": "C6A U7A C9A U10A A45G", "exon inclusion enrichment index": 1.6}
{"variant": "G5U G8U C9U A20C", "exon inclusion enrichment index": 0.124}
{"variant": "C6A U7C C9A U10A", "exon inclusion enrichment index": 1.36}
{"variant": "C6A U7C C9A U10C G42A", "exon inclusion enrichment index": 4.25}
{"variant": "G5C C6G U7C U10C C19A A20G", "exon inclusion enrichment index": 0.953}
{"variant": "G5U G8U C9U U17G C18A", "exon inclusion enrichment index": 0.124}
{"variant": "G5C C6A U7C G8A U10A A14C G15A", "exon inclusion enrichment index": 0.0306}
{"variant": "G5A C6G U7G C9A G11A G12C", "exon inclusion enrichment index": 0.00102}
{"variant": "G5A C6G U7G C9A G12C G13C", "exon inclusion enrichment index": 0.00164}
{"variant": "G5A U7C G8A U10C C24U A25C", "exon inclusion enrichment index": 3.55}
{"variant": "G5C C6A U7C G8A U10A G21C C22U", "exon inclusion enrichment index": 0.105}
{"variant": "G5C C6A U7C G8A U10A G21C C22A", "exon inclusion enrichment index": 0.0674}
{"variant": "G5A U7C G8A U10C G46A A47G", "exon inclusion enrichment index": 0.953}
{"variant": "G5C C6U G8C C9U U10C G41C", "exon inclusion enrichment index": 3.06}
{"variant": "G5C C6U G8C C9U U10C G41U", "exon inclusion enrichment index": 2.03}
{"variant": "G5U G8U C9U G21C", "exon inclusion enrichment index": 0.162}
{"variant": "G5A C6U U7A G8U C9A C18A", "exon inclusion enrichment index": 0.017}
{"variant": "C6A U7A C9A U10A A14G G15A", "exon inclusion enrichment index": 0.841}
{"variant": "G5A C6G U7G C9A A20G", "exon inclusion enrichment index": 0.00245}
